Experimental data: the supplement of paper PMC9112550, “Optimization of the antimicrobial peptide Bac7 by deep mutational scanning” (BMC Biology, 2022)

What follows are sequences tested on Escherichia coli TOP10 (assay: shrunken log2 fold change of peptide-encoding DNA abundance (4.5 h post-induction vs induction); higher = less antimicrobial activity (less host growth inhibition)). Details: time post-induction: 4.5 h; library: site-saturation at positions 5, 18, 19, 20.
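Further: peptides expressed intracellularly from a pBAD plasmid library in pooled LB shake-flask culture, induced with 0.3% L-arabinose, DNA abundance read by NGS, three biological replicates, DESeq2 with apeglm shrinkage.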

Sequence | shrunken log2 fold change
RRIRHRPPRLPRPRPRPKGWPRP | 0.103
RRIRHRPPRLPRPRPRPWSMPRP | -0.293
RRIRNRPPRLPRPRPRPMLPPRP | 0.00241
RRIRRRPPRLPRPRPRPSKKPRP | 0.144
RRIRNRPPRLPRPRPRPVAHPRP | -0.0475
RRIRCRPPRLPRPRPRPLSMPRP | -0.207
RRIRLRPPRLPRPRPRPICVPRP | 0.151
RRIRLRPPRLPRPRPRPNPNPRP | 0.395
RRIRNRPPRLPRPRPRPVVFPRP | -0.0743
RRIRRRPPRLPRPRPRPELIPRP | 0.0314
RRIRHRPPRLPRPRPRPSDLPRP | -0.441
RRIRSRPPRLPRPRPRPHSKPRP | -0.486
RRIRYRPPRLPRPRPRPPTLPRP | -0.274
RRIRWRPPRLPRPRPRPFVFPRP | -0.0764
RRIRSRPPRLPRPRPRPWPTPRP | 0.219
RRIRARPPRLPRPRPRPWENPRP | 0.0143
RRIRRRPPRLPRPRPRPDFTPRP | 0.0748
RRIRSRPPRLPRPRPRPTGIPRP | -0.0906
RRIRLRPPRLPRPRPRPTFSPRP | -0.0485
RRIRTRPPRLPRPRPRPVEEPRP | -0.08
RRIRARPPRLPRPRPRPNGAPRP | 0.0281
RRIRDRPPRLPRPRPRPQESPRP | -0.257
RRIRLRPPRLPRPRPRPDAIPRP | 0.0952
RRIRNRPPRLPRPRPRPWVMPRP | -0.00783
RRIRHRPPRLPRPRPRPWRCPRP | -0.221

Sequence | shrunken log2 fold change
RRIRIRPPRLPRPRPRPCGTPRP | -0.00435
RRIRQRPPRLPRPRPRPPLAPRP | 0.691
RRIRYRPPRLPRPRPRPDEHPRP | -0.0204
RRIRIRPPRLPRPRPRPYFNPRP | -1.29
RRIRYRPPRLPRPRPRPCCPPRP | -0.38
RRIRARPPRLPRPRPRPKSGPRP | 0.166
RRIRIRPPRLPRPRPRPVIEPRP | -0.121
RRIRSRPPRLPRPRPRPKSLPRP | -0.0747
RRIRKRPPRLPRPRPRPTMRPRP | 1.02
RRIRIRPPRLPRPRPRPGSTPRP | -0.549
RRIRSRPPRLPRPRPRPHGVPRP | 0.013
RRIRARPPRLPRPRPRPDAWPRP | 1.05
RRIRDRPPRLPRPRPRPVNLPRP | 0.0119
RRIRGRPPRLPRPRPRPWDAPRP | 0.142
RRIRTRPPRLPRPRPRPPSEPRP | 0.42
RRIRRRPPRLPRPRPRPVDWPRP | 0.577
RRIRGRPPRLPRPRPRPRHNPRP | 0.0863
RRIRDRPPRLPRPRPRPLEGPRP | 0.0257
RRIRDRPPRLPRPRPRPVDQPRP | -0.131
RRIRWRPPRLPRPRPRPAHKPRP | 0.344
RRIRHRPPRLPRPRPRPEKNPRP | -0.0893
RRIRKRPPRLPRPRPRPQNMPRP | -0.521
RRIRSRPPRLPRPRPRPCCTPRP | -0.0345
RRIRERPPRLPRPRPRPRWYPRP | -0.464
RRIRCRPPRLPRPRPRPVVAPRP | 0.319

Sequence | shrunken log2 fold change
RRIRWRPPRLPRPRPRPHGLPRP | 0.0735
RRIRSRPPRLPRPRPRPLNLPRP | -0.539
RRIRKRPPRLPRPRPRPVPKPRP | 0.289
RRIRCRPPRLPRPRPRPHLYPRP | 1.42
RRIRIRPPRLPRPRPRPHQAPRP | -0.0342
RRIRVRPPRLPRPRPRPMSAPRP | 0.262
RRIRTRPPRLPRPRPRPVKIPRP | -1.21
RRIRARPPRLPRPRPRPAIDPRP | 0.387
RRIRLRPPRLPRPRPRPIHTPRP | -0.133
RRIRGRPPRLPRPRPRPVPPPRP | 1.17
RRIRTRPPRLPRPRPRPQKQPRP | 0.166
RRIRARPPRLPRPRPRPKEHPRP | 0.217
RRIRFRPPRLPRPRPRPQEKPRP | -0.0525
RRIRGRPPRLPRPRPRPTCHPRP | 0.893
RRIRFRPPRLPRPRPRPTPFPRP | 0.266
RRIRVRPPRLPRPRPRPMPKPRP | 0.0271
RRIRQRPPRLPRPRPRPGMPPRP | -0.0642
RRIRMRPPRLPRPRPRPHGEPRP | 0.365
RRIRFRPPRLPRPRPRPWDKPRP | -1.33
RRIRNRPPRLPRPRPRPCKLPRP | -0.362
RRIRDRPPRLPRPRPRPKMDPRP | 0.0675
RRIRERPPRLPRPRPRPDWNPRP | -0.631
RRIRYRPPRLPRPRPRPVLLPRP | -0.109
RRIRRRPPRLPRPRPRPIVLPRP | -0.102
RRIRRRPPRLPRPRPRPDQLPRP | -0.0202
